This passage reports Kd results from paper PMC12153800 (2025).

Experiment [1] addresses HiBiT-FZD2-mCherry (mouse, UniProt Q9JIP6 29-570).
Experiment [2] deals with HiBiT-FZD1-mCherry (mouse, UniProt O70421 69-642).
The target of experiment [3] is T1, HiBiT-FZD4-mCherry (mouse, UniProt Q61088 37-537).
T1 chain: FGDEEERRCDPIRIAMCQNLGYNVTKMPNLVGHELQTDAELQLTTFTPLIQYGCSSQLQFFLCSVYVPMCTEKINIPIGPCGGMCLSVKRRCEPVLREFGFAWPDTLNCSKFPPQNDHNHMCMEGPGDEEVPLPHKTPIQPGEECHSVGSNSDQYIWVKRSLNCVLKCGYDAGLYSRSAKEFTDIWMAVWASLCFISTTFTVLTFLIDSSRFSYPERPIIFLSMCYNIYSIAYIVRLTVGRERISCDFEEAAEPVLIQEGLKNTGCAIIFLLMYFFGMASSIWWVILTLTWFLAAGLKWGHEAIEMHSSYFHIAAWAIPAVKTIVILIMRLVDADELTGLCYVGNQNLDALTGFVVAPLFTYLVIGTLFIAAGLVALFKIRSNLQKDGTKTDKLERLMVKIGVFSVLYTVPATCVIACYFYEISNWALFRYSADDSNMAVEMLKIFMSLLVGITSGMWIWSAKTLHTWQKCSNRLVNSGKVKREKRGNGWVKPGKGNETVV

Experiment [4] has as its target T2, HiBiT-FZD5-mCherry (U-2 OS cells) (mouse, UniProt Q9EQD0 27-585).
T2 chain: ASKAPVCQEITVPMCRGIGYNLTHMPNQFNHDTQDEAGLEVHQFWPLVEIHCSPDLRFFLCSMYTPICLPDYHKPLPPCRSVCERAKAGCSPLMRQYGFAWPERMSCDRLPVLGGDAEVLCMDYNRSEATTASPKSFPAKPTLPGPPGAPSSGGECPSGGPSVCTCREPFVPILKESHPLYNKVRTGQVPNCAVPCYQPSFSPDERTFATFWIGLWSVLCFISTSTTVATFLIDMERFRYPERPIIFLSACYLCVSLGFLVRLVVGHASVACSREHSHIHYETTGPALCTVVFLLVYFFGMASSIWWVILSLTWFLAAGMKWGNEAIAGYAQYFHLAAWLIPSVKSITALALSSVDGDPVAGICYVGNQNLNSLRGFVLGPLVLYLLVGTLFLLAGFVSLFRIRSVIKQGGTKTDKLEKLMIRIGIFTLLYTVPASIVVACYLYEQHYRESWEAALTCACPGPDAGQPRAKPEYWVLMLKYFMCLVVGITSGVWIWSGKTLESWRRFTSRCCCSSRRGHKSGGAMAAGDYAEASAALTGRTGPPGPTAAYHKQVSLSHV

In experiment [5] the target is T3, HiBiT-FZD8-mCherry (mouse, UniProt Q61091 28-685).
T3 chain: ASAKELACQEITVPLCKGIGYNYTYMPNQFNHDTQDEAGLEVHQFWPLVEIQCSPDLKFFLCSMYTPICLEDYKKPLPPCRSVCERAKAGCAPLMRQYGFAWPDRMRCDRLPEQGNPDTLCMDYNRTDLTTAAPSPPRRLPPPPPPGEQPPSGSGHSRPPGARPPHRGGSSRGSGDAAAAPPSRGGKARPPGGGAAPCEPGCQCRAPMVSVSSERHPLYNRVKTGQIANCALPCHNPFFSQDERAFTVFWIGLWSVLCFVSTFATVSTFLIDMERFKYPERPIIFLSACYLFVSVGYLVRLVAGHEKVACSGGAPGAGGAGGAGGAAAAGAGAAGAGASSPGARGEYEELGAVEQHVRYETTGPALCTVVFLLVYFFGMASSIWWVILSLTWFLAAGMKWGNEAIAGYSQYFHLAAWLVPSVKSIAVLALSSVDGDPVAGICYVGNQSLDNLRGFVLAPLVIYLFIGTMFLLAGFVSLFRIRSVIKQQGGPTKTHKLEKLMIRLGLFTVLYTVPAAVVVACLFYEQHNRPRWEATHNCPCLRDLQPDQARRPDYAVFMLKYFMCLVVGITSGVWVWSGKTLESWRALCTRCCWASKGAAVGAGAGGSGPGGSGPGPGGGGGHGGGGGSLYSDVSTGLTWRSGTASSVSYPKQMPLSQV

Experiment [6] deals with HiBiT-FZD7-mCherry (mouse, UniProt Q61090 33-572).

Chain of HiBiT-FZD2-mCherry (Q9JIP6 29-570): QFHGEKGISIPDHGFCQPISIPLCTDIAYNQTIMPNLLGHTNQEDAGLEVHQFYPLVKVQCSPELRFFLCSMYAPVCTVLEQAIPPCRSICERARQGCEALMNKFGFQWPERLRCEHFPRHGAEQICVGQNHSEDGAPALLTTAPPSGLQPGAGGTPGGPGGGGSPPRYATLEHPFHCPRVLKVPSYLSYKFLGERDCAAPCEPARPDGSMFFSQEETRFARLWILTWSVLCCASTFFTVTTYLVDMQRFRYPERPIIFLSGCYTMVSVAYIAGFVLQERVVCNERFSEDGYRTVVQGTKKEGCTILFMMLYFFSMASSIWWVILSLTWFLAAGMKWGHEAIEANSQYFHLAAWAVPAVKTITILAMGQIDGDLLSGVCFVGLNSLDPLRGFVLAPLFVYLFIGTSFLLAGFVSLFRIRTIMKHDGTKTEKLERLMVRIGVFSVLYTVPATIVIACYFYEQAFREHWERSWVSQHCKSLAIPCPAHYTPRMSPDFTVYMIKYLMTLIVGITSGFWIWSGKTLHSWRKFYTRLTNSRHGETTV
Chain of HiBiT-FZD1-mCherry (O70421 69-642): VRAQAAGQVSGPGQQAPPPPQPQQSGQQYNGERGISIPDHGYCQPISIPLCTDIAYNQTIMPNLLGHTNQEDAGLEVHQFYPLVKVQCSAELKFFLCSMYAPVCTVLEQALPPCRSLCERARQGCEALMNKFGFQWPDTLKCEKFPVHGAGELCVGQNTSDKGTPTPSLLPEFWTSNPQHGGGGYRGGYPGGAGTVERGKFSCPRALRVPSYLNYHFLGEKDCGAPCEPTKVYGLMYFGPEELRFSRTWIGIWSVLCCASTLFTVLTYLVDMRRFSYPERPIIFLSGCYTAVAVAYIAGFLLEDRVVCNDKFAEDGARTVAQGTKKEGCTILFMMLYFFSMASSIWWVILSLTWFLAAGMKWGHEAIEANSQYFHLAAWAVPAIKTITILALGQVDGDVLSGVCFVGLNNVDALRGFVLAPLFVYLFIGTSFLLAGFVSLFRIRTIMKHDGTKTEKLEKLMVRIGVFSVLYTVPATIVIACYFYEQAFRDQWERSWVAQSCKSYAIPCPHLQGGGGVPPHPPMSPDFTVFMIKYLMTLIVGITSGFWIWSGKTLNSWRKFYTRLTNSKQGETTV

B1: eGFP-Wnt16 (ligand)
chain: NWMWLGIASFGVPEKLGCANLPLNSRQKELCKRKPYLLPSIREGARLGIQECGSQFRHERWNCMITAAATTAPMGASPLFGYELSSGTKETAFIYAVMAAGLVHSVTRSCSAGNMTECSCDTTLQNGGSASEGWHWGGCSDDVQYGMWFSRKFLDFPIGNTTGKENKVLLAMNLHNNEAGRQAVAKLMSVDCRCHGVSGSCAVKTCWKTMSSFEKIGHLLKDKYENSIQISDKTKRKMRRREKDQRKIPIHKDDLLYVNKSPNYCVEDKKLGIPGTQGRECNRTSEGADGCNLLCCGRGYNTHVVRHVERCECKFIWCCYVRCRRCESMTDVHTCK
Consider B1, for which the Kd was determined as 10.6 nM in experiment [1]; 30.7 nM in experiment [2]; 21.8 nM in experiment [3]; 14.2 nM in experiment [4]; 6.62 nM in experiment [5]; 10.3 nM in experiment [6].

B2: eGFP-Wnt5a (ligand)
chain: IIGAQPLCSQLAGLSQGQKKLCHLYQDHMQYIGEGAKTGIKECQYQFRHRRWNCSTVDNTSVFGRVMQIGSRETAFTYAVSAAGVVNAMSRACREGELSTCGCSRAARPKDLPRDWLWGGCGDNIDYGYRFAKEFVDARERERIHAKGSYESARILMNLHNNEAGRRTVYNLADVACKCHGVSGSCSLKTCWLQLADFRKVGDALKEKYDSAAAMRLNSRGKLVQVNSRFNSPTTQDLVYIDPSPDYCVRNESTGSLGTQGRLCNKTSEGMDGCELMCCGRGYDQFKTVQTERCHCKFHWCCYVKCKKCTEIVDQFVCK
For B2, the Kd turned out to be 3.85 nM in experiment [1]; 14.4 nM in experiment [2]; 3.56 nM in experiment [3]; 16.2 nM in experiment [4]; 7.52 nM in experiment [5]; 1.25 nM in experiment [6].

For orientation: Kd means the concentration at which binding is half-saturated. Read a low Kd as tighter binding.
